# Experimental data: the supplement of paper PMC9112550, “Optimization of the antimicrobial peptide Bac7 by deep mutational scanning” (BMC Biology, 2022)
# Test system: Escherichia coli TOP10
# Experiment: shrunken log2 fold change of peptide-encoding DNA abundance (4.5 h post-induction vs induction); higher = less antimicrobial activity (less host growth inhibition)
# Conditions: time post-induction: 4.5 h; library: site-saturation at positions 5, 18, 19, 20
# 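Note: peptides expressed intracellularly from a pBAD plasmid library in pooled LB shake-flask culture, induced with 0.3% L-arabinose, DNA abundance read by NGS, three biological replicates, DESeq2 with apeglm shrinkage.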
row,Sequence,shrunken log2 fold change
1,RRIRARPPRLPRPRPRPKILPRP,-0.168
2,RRIRMRPPRLPRPRPRPAQDPRP,0.376
3,RRIRGRPPRLPRPRPRPALIPRP,0.737
4,RRIRDRPPRLPRPRPRPSAYPRP,0.0641
5,RRIRVRPPRLPRPRPRPNGAPRP,-0.0189
6,RRIRWRPPRLPRPRPRPSGYPRP,0.141
7,RRIRMRPPRLPRPRPRPDEVPRP,0.00989
8,RRIRARPPRLPRPRPRPQEVPRP,-0.0933
9,RRIRTRPPRLPRPRPRPFYPPRP,-0.478
10,RRIRWRPPRLPRPRPRPCTYPRP,-0.473
11,RRIRRRPPRLPRPRPRPANHPRP,0.097
12,RRIRNRPPRLPRPRPRPRANPRP,0.0572
13,RRIRHRPPRLPRPRPRPVYLPRP,-0.406
14,RRIRHRPPRLPRPRPRPAFNPRP,-0.313
15,RRIRSRPPRLPRPRPRPRTQPRP,0.107
16,RRIRQRPPRLPRPRPRPQSQPRP,-0.159
17,RRIRTRPPRLPRPRPRPWQLPRP,-0.189
18,RRIRKRPPRLPRPRPRPCAEPRP,0.951
19,RRIRFRPPRLPRPRPRPIQHPRP,-0.196
20,RRIRERPPRLPRPRPRPNLTPRP,-0.171
21,RRIRLRPPRLPRPRPRPITEPRP,0.0241
22,RRIRYRPPRLPRPRPRPSQEPRP,-0.748
23,RRIRKRPPRLPRPRPRPHEKPRP,1.1
24,RRIRWRPPRLPRPRPRPWMPPRP,-0.127
25,RRIRKRPPRLPRPRPRPTTWPRP,0.414

row,Sequence,shrunken log2 fold change
1,RRIRYRPPRLPRPRPRPSDAPRP,-0.386
2,RRIRKRPPRLPRPRPRPFKVPRP,-0.0542
3,RRIRMRPPRLPRPRPRPRAHPRP,0.758
4,RRIRMRPPRLPRPRPRPMAQPRP,-0.0018
5,RRIRNRPPRLPRPRPRPSPAPRP,0.0876
6,RRIRARPPRLPRPRPRPHRPPRP,-0.0433
7,RRIRVRPPRLPRPRPRPKNIPRP,-0.505
8,RRIRDRPPRLPRPRPRPNKLPRP,-0.277
9,RRIRLRPPRLPRPRPRPNAAPRP,-0.0536
10,RRIRDRPPRLPRPRPRPYPPPRP,-0.426
11,RRIRDRPPRLPRPRPRPSMMPRP,0.636
12,RRIRARPPRLPRPRPRPITDPRP,-0.0703
13,RRIRERPPRLPRPRPRPKVQPRP,0.105
14,RRIRWRPPRLPRPRPRPDIQPRP,0.27
15,RRIRHRPPRLPRPRPRPSSNPRP,-0.399
16,RRIRRRPPRLPRPRPRPGWYPRP,0.205
17,RRIRKRPPRLPRPRPRPVDDPRP,0.508
18,RRIRGRPPRLPRPRPRPHDHPRP,-0.027
19,RRIRSRPPRLPRPRPRPCLFPRP,-0.193
20,RRIRMRPPRLPRPRPRPAQIPRP,-0.0435
21,RRIRARPPRLPRPRPRPTFNPRP,0.0685
22,RRIRERPPRLPRPRPRPALCPRP,0.0446
23,RRIRDRPPRLPRPRPRPSYVPRP,-0.206
24,RRIRDRPPRLPRPRPRPMNKPRP,-0.381
25,RRIRLRPPRLPRPRPRPYKGPRP,-0.027

row,Sequence,shrunken log2 fold change
1,RRIRHRPPRLPRPRPRPLKGPRP,0.0721
2,RRIRHRPPRLPRPRPRPCEVPRP,-0.00674
3,RRIRFRPPRLPRPRPRPSCNPRP,-0.714
4,RRIRKRPPRLPRPRPRPTWRPRP,1.23
5,RRIRQRPPRLPRPRPRPCAAPRP,0.339
6,RRIRPRPPRLPRPRPRPKSGPRP,0.356
7,RRIRVRPPRLPRPRPRPLKGPRP,-0.211
8,RRIRHRPPRLPRPRPRPMRDPRP,0.684
9,RRIRFRPPRLPRPRPRPNYFPRP,-0.383
10,RRIRWRPPRLPRPRPRPKLIPRP,-0.211
11,RRIRPRPPRLPRPRPRPLNWPRP,0.0566
12,RRIRGRPPRLPRPRPRPQEMPRP,0.0954
13,RRIRYRPPRLPRPRPRPIVNPRP,-0.558
14,RRIRQRPPRLPRPRPRPFDKPRP,-0.0121
15,RRIRARPPRLPRPRPRPNKYPRP,-0.449
16,RRIRFRPPRLPRPRPRPPWYPRP,-0.3
17,RRIRDRPPRLPRPRPRPVHSPRP,-0.243
18,RRIRGRPPRLPRPRPRPGPYPRP,0.324
19,RRIRVRPPRLPRPRPRPLHKPRP,-0.192
20,RRIRARPPRLPRPRPRPHLIPRP,-0.0757
21,RRIRFRPPRLPRPRPRPGNEPRP,-0.00911
22,RRIRWRPPRLPRPRPRPQVDPRP,1.5
23,RRIRFRPPRLPRPRPRPLCCPRP,-0.205
24,RRIRPRPPRLPRPRPRPGSYPRP,0.0254
25,RRIRPRPPRLPRPRPRPQEGPRP,-0.259

row,Sequence,shrunken log2 fold change
1,RRIRRRPPRLPRPRPRPRYPPRP,0.252
2,RRIRRRPPRLPRPRPRPRGDPRP,0.393
3,RRIRARPPRLPRPRPRPRDEPRP,1.06
4,RRIRTRPPRLPRPRPRPWQVPRP,-0.0764
5,RRIRDRPPRLPRPRPRPWPDPRP,0.129
6,RRIRMRPPRLPRPRPRPLPQPRP,0.742
7,RRIRLRPPRLPRPRPRPGWCPRP,0.191
8,RRIRYRPPRLPRPRPRPFEYPRP,-0.0492
9,RRIRVRPPRLPRPRPRPHATPRP,0.204
10,RRIRNRPPRLPRPRPRPEHNPRP,-0.486
11,RRIRERPPRLPRPRPRPDNAPRP,-0.245
12,RRIRLRPPRLPRPRPRPYCHPRP,-0.542
13,RRIRSRPPRLPRPRPRPGIHPRP,0.115
14,RRIRMRPPRLPRPRPRPDGLPRP,0.143
15,RRIRPRPPRLPRPRPRPCPAPRP,-0.0349
16,RRIRYRPPRLPRPRPRPTFKPRP,-0.445
17,RRIRQRPPRLPRPRPRPWCAPRP,0.0231
18,RRIRQRPPRLPRPRPRPHHSPRP,-0.107
19,RRIRYRPPRLPRPRPRPFMQPRP,-0.403
20,RRIRTRPPRLPRPRPRPWSEPRP,-0.364
21,RRIRGRPPRLPRPRPRPMNIPRP,0.127
22,RRIRDRPPRLPRPRPRPVMPPRP,-0.189
23,RRIRSRPPRLPRPRPRPHWNPRP,-0.429
24,RRIRQRPPRLPRPRPRPGENPRP,-0.0193
25,RRIRNRPPRLPRPRPRPRCKPRP,0.0547

row,Sequence,shrunken log2 fold change
1,RRIRPRPPRLPRPRPRPINEPRP,-0.54
2,RRIRFRPPRLPRPRPRPEHQPRP,-0.1
3,RRIRVRPPRLPRPRPRPSRLPRP,0.599
4,RRIRTRPPRLPRPRPRPVMCPRP,-0.222
5,RRIRNRPPRLPRPRPRPISIPRP,0.0125
6,RRIRLRPPRLPRPRPRPKPVPRP,0.165
7,RRIRFRPPRLPRPRPRPCTEPRP,-0.431
8,RRIRARPPRLPRPRPRPPNWPRP,0.59
9,RRIRWRPPRLPRPRPRPIGSPRP,-0.0153
10,RRIRCRPPRLPRPRPRPQTEPRP,0.0248
11,RRIRTRPPRLPRPRPRPYAFPRP,-0.17
12,RRIRERPPRLPRPRPRPYMAPRP,-0.137
13,RRIRTRPPRLPRPRPRPMDKPRP,-0.528
14,RRIRPRPPRLPRPRPRPLGNPRP,-0.173
15,RRIRFRPPRLPRPRPRPDMNPRP,-0.407
16,RRIRSRPPRLPRPRPRPEMSPRP,0.259
17,RRIRMRPPRLPRPRPRPAWYPRP,0.177
18,RRIRTRPPRLPRPRPRPMMWPRP,0.00735
19,RRIRVRPPRLPRPRPRPEQFPRP,0.0357
20,RRIRCRPPRLPRPRPRPHNWPRP,-0.00871
21,RRIRIRPPRLPRPRPRPVDAPRP,-0.0281
22,RRIRGRPPRLPRPRPRPSVSPRP,0.166
23,RRIRGRPPRLPRPRPRPQPQPRP,0.706
24,RRIRNRPPRLPRPRPRPILDPRP,-0.0452
25,RRIRPRPPRLPRPRPRPHMKPRP,1.08

row,Sequence,shrunken log2 fold change
1,RRIRIRPPRLPRPRPRPDDSPRP,-0.267
2,RRIRARPPRLPRPRPRPVPPPRP,1.05
3,RRIRDRPPRLPRPRPRPDPRPRP,0.0663
4,RRIRIRPPRLPRPRPRPVTPPRP,-0.0315
5,RRIRPRPPRLPRPRPRPIISPRP,-0.189
6,RRIRSRPPRLPRPRPRPLSSPRP,-0.329
7,RRIRNRPPRLPRPRPRPFCVPRP,-0.0352
8,RRIRRRPPRLPRPRPRPLVTPRP,-0.0631
9,RRIRSRPPRLPRPRPRPGPLPRP,0.292
10,RRIRARPPRLPRPRPRPYMLPRP,-0.659
11,RRIRIRPPRLPRPRPRPQFGPRP,1.74
12,RRIRNRPPRLPRPRPRPWVAPRP,-0.0268
13,RRIRHRPPRLPRPRPRPPRGPRP,0.564
14,RRIRSRPPRLPRPRPRPCRWPRP,0.0467
15,RRIRRRPPRLPRPRPRPSAVPRP,0.368
16,RRIRPRPPRLPRPRPRPPIGPRP,0.287
17,RRIRERPPRLPRPRPRPADWPRP,0.349
18,RRIRCRPPRLPRPRPRPITNPRP,-0.449
19,RRIRPRPPRLPRPRPRPNSRPRP,-0.1
20,RRIRGRPPRLPRPRPRPKGSPRP,1.03
21,RRIRKRPPRLPRPRPRPHMKPRP,-0.0471
22,RRIRMRPPRLPRPRPRPTEGPRP,0.269
23,RRIRFRPPRLPRPRPRPMYYPRP,-0.123
24,RRIRARPPRLPRPRPRPFWLPRP,0.0704
25,RRIRHRPPRLPRPRPRPTAAPRP,0.518
